Data as given in US20220213209A1 (JOINT STOCK COMPANY BIOCAD, published 2022).

T1: recombinant human GITR antigen (extracellular domain) (human, UniProt Q9Y5U5 26-162)
T1 construct: extracellular domain
T1 sequence (looked up): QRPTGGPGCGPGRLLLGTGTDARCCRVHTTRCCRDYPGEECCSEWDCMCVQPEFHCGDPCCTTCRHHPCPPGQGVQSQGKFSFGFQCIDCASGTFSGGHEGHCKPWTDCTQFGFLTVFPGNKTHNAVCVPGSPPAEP

T2: macaca mulatta GITR (Macaca mulatta, UniProt F7DDV8 20-156)
T2 construct: also called rhesus macaque GITR; mcyGITR Macaca mulatta
T2 sequence: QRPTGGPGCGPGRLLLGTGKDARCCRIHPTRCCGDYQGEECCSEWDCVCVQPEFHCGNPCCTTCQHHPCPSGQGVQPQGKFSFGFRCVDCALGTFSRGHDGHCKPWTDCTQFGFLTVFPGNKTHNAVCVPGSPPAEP

T3: murine GITR-Fc (Mus musculus, UniProt O35714 20-153)
T3 construct: extracellular domain; also called mouse GITR; musGITR
T3 sequence (looked up): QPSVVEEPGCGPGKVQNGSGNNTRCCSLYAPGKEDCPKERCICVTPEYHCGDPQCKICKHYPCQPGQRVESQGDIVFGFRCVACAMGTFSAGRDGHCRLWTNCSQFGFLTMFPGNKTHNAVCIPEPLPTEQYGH

T4: human FcgRIIa131H (human, UniProt P12318 36-218, biotinylated (site not stated))
T4 construct: Biotinylated receptor on streptavidin sensors
T4 sequence (looked up): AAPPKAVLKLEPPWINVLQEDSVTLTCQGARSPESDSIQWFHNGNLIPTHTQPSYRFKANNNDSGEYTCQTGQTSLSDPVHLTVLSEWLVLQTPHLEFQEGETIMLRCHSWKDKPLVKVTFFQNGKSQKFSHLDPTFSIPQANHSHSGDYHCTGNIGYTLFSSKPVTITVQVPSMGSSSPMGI

T5: human FcgRIIa131R (human, UniProt P12318 36-218, biotinylated (site not stated))
T5 construct: Biotinylated receptor on streptavidin sensors
T5 sequence (looked up): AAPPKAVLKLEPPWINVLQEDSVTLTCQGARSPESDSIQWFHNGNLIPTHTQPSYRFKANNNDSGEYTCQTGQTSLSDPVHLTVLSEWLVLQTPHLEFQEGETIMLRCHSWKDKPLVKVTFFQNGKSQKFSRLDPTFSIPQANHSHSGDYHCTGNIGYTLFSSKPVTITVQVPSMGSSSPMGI

T6: human FcgRIIb (human, UniProt P31994 43-217, biotinylated (site not stated))
T6 construct: Biotinylated receptor on streptavidin sensors
T6 sequence (looked up): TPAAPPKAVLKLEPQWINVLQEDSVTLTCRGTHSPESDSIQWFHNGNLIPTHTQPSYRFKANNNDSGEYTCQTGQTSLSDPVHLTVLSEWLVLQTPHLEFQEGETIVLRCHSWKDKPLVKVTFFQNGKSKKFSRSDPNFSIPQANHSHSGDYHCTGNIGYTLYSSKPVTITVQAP

T7: GITR stably expressed on the surface of HEK-293 cells (UniProt Q9Y5U5 26-241)
T7 sequence (looked up): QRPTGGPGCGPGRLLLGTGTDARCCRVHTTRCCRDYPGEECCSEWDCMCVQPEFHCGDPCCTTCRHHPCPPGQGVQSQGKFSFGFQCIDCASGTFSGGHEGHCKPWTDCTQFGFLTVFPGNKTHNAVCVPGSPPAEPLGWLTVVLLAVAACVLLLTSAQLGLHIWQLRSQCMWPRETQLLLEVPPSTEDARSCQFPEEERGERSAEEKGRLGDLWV


Legend:
[1] = target: T1, recombinant human GITR antigen …; assay: BLI OctetRed 96, antigen on AR2G sensors, antibody in solution, 1:1 model
Experimental: Binding affinity constants for anti-GITR antibody-human/rhesus macaque/cynomolgus monkey GITR interactions were determined using OctetRed 96 according to manufacturer (ForteBio) protocol. Antigen 25 μg/ml was non-specifically immobilized onto the surface of amine-reactive sensors of the second generation (AR2G) (ForteBio, using standard protocol according to manufacturer's instructions for preparation and immobilization of AR2G sensors). […] The assay was conducted at 30° C. using PBS comprising 0.1% Tween-20 and 0.1% BSA as a working buffer.
The resulting sensograms, after subtracting a reference signal, were analyzed using Octet Data Analysis software (Version 8.0) in accordance with the standard procedure and using 1:1 interaction model. All tested antibodies show high affinity and specificity for human GITR.

[2] = target: T8, macaca Cynomolgus GITR (Macaca cynomolgus); assay: as above
T8 construct: also called cynomolgus monkey GITR; monkey GITR
Experimental: (§1) Binding affinity constants for anti-GITR antibodies and rhesus macaque/cynomolgus monkey GITR were obtained using OctetRed 96 according to manufacturer's (ForteBio) protocol. Antigen 25 μg/ml was non-specifically immobilized onto the surface of amine-reactive sensors of the second generation (AR2G) (ForteBio, using standard protocol according to manufacturer's instructions for preparation and immobilization of AR2G sensors). […] The assay was conducted at 30° C. using PBS comprising 0.1% Tween-20 and 0.1% BSA as a working buffer.
(§2) The resulting sensograms, after subtracting a reference signal, were analyzed using Octet Data Analysis software (Version 8.0) in accordance with the standard procedure and using 1:1 interaction model.

[3] = target: T2, macaca mulatta GITR; assay: as above
Experimental: as §1, §2

[4] = target: T3, murine GITR-Fc; assay: ELISA, plate coated with mouse GITR-Fc 0.5 µg/ml, antibody titrated 10 to 0.02 µg/ml
Experimental: ELISA was used to measure relative affinity of antibodies against GITR-Fc from different organisms. For binding assay, ELISA plate wells (medium binding from Greiner bio one) were coated with 50 μl of human/cynomolgus/murine GITR-Fc (0.5 μg/ml in 1× carbonate buffer), sealed and incubated overnight at 4° C. All further steps were performed in accordance with the standard ELISA protocol described in Example 6. […] Therefore, candidate BCD166-01-011 was excluded from further study due to the lack of apparent specificity for the monkey GITR. Candidates BCD166-01-01 and BCD166-01-014 were finalized for further development.

[5] = target: T9, human FcgRIIIa158F (human, UniProt P08637 17-208, biotinylated (site not stated)); assay: bio-layer interferometry (OctetRed 96), biotinylated receptor on streptavidin sensors, antibody in solution, pH 7.4 buffer, 30 °C
T9 construct: Biotinylated receptor on streptavidin sensors
Experimental: (§3) The binding affinity constants for antibody BCD166-02-01-human FcRn, FcgRIIIa158V, FcgRIIIa158F, FcgRIIa131H, FcgRIIa131R, FcgRIIb and FcgRIa interactions were determined using OctetRed 96 (ForteBio). Biotinylated receptors were immobilized on the surface of streptavidin sensors (SA). We conducted and analyzed the association and dissociation between receptors and antibody in a working buffer (PBS containing 0.1% Tween-20 and 0.1% BSA: for FcRn receptor we used pH6 buffer, for the other receptors we used pH 7.4 buffer) at 30° C. The resulting sensograms were analyzed in accordance with 1:1 or 2:1 models, the affinity constants were calculated using Octet Data Analysis Software 8.0 User Guide Copyright 2011©.

[6] = target: T4, human FcgRIIa131H; assay: as above
Experimental: as §3

[7] = target: T5, human FcgRIIa131R; assay: as above
Experimental: as §3

[8] = target: T10, human FcgRIa (human, UniProt P12314 16-288, limits assumed, biotinylated (site not stated)); assay: as above
T10 construct: Biotinylated receptor on streptavidin sensors
Experimental: as §3

[9] = target: T6, human FcgRIIb; assay: as above
Experimental: as §3

[10] = target: T11, human FcgRIIIa158V (human, UniProt P08637 17-208, biotinylated (site not stated)); assay: as above
T11 construct: Biotinylated receptor on streptavidin sensors
Experimental: as §3

[11] = target: T12, human FcRn (human, UniProt P55899 24-297; P61769 21-119, biotinylated (site not stated)); assay: bio-layer interferometry (OctetRed 96), biotinylated receptor on streptavidin sensors, antibody in solution, pH 6 buffer, 30 °C
T12 construct: Biotinylated receptor on streptavidin sensors
Experimental: as §3

[12] = target: T7, GITR stably expressed on the surface of …; assay: cell-based or functional assay

T10 sequence (P12314 16-288 limits assumed): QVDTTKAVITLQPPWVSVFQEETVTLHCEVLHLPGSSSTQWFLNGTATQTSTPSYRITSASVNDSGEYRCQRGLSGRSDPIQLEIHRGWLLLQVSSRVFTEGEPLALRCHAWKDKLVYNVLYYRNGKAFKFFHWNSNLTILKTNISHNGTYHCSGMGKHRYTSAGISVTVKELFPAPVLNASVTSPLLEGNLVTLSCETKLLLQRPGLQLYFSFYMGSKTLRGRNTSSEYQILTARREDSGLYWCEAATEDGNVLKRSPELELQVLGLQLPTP
T9 sequence (P08637 17-208 limits assumed): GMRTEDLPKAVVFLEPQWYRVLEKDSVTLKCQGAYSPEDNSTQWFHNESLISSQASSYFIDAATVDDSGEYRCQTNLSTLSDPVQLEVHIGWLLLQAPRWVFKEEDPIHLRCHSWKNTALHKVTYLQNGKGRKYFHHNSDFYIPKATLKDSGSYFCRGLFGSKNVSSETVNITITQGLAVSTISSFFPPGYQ
T11 sequence (P08637 17-208 F176V limits assumed): as the sequence (P08637 17-208 limits assumed) above, with F160V counted along it

Kd [1] [nM] | Kd [2] [nM] | Kd [3] [nM] | binding result [4] | Kd [5] [nM] | Kd [6] [nM] | Kd [7] [nM] | Kd [8] [nM] | Kd [9] [nM] | Kd [10] [nM] | Kd [11] [nM] | EC50 in ADCC reporter assay (Jurkat-NFAT-Luc-CD16 effector cells, Hek-293-GITR target cells) [12] | EC50 in cell agonist assay (HEK293-GITR-NFkB-Luc) [12] | level of activation in cell agonist assay (HEK293-GITR-NFkB-Luc) [12] | Binder
8.5 | 55.3 | 0.192 | no binding (tested: 10 µg/ml) | – | – | – | – | – | – | – | – | – | – | BCD166-01-014 (antibody, human IgG1, lambda, V domains shown, Full-length IgG1, lambda light chain; from an immune llama-human CHARM Fab library; also called BCD166-01-14) VH: QVQLVQSGGGLVQPGGSLRLSCAASGFTFSYYWMYWVRQAPGKGLEWVSAISWNGGRTYYAESMKGRFTISRDNAQNTLYLQMNSLKSEDTAVYYCAKNRYYSDPNYGMNLWGKGTTVTVSS VL: QSALTQPASVSGSPGQSITISCTGTSTDIGTYKYISWYQQHPGKAPKLIIYGVSHRPSGVSDRFSGSKSDNTASLTISGLQAEDEADYYCSSYTSSGTVVFGGGTKVTVLG
– | – | – | – | 1420 | 72.2 | 40.2 | 0.723 | 557 | 118 | 27 | 40 fold, against BCD166-01-01 | 20 fold, against BCD166-01-01 | 5 fold, against BCD166-01-01 | BCD166-02-01 (antibody, human IgG1, kappa, BCD166-01-01 with the E345R mutation (EU numbering) in the IgG1 Fc; also called BCD166-02-001) heavy: not shown light: DVVMTQSPSSVSASVGDRVTITCRASQSIGSWLAWYQQKPGEAPKLLIYAASTLQRGVPSRFSGGGYGTEFTLTISSLQPEDFATYFCQQSHSHPLTFGGGTKVEIKRTVAAPSVFIFPPSDEQLKSGTASVVCLLNNFYPREAKVQWKVDNALQSGNSQESVTEQDSKDSTYSLSSTLTLSKADYEKHKVYACEVTHQGLSSPVTKSFNRGEC
0.0638 | 0.542 | 0.0924 | no binding (tested: 10 µg/ml) | – | – | – | – | – | – | – | – | – | – | BCD166-01-01 (antibody, human IgG1, kappa, Full-length human IgG1, kappa; also called BCD166-01-001; BCD166-NHVKITSe13-5-H3-25) heavy: not shown light: DVVMTQSPSSVSASVGDRVTITCRASQSIGSWLAWYQQKPGEAPKLLIYAASTLQRGVPSRFSGGGYGTEFTLTISSLQPEDFATYFCQQSHSHPLTFGGGTKVEIKRTVAAPSVFIFPPSDEQLKSGTASVVCLLNNFYPREAKVQWKVDNALQSGNSQESVTEQDSKDSTYSLSSTLTLSKADYEKHKVYACEVTHQGLSSPVTKSFNRGEC
